Measured values as given in patent US20120282282A1, “Methods for Decreasing Ocular Toxicity of Antibody Drug Conjugates” (priority 2011, published 2012).
Like-named read-outs stand apart in the source and are kept apart here.

How the values were obtained:
[1] = SAR3419 Phase I clinical trials, pharmacokinetics and toxicity; type: in vivo, human
From the text: SAR3419 is a DM4-containing antibody drug conjugate that comprises the humanized antibody Hu-B4 (humanized mouse IgG1 MAb targeting CD19) and the SPDB linker. Phase I clinical trials were initiated in patients having relapsed or refractory CD19+B cell Non-Hodgkins Lymphoma.

[2] = type: in vivo; conditions: rabbit, 3 weekly doses
Description: Maytansinoid conjugates with different linker-maytansinoid formats were evaluated for induction of corneal ocular toxicity in a preclinical rabbit model. Hallmarks of corneal epithelial damage such as migration of pigmented basal epithelial cells distal from the limbus, corneal pannus, and epithelial erosion were assessed following 3 weekly doses.

[3] = IMGN242 preclinical pharmacokinetic studies, cynomolgus monkeys; type: in vivo
Description: (§1) IMGN242 is an antibody drug conjugate for the treatment of CanAg-expressing tumors. The compound is made by conjugating the potent cytotoxic maytansinoid, DM4, to the monoclonal antibody, huC242. Forty-five patients have been treated with IMGN242 at 8 different dose levels (18 to 297 mg/m2) in two clinical trials. […] The determined half-life in patients was similar to that predicted for IMGN242 from preclinical pharmacokinetic studies (t1/2 about 5 days in mice and 4 days in cynomolgus monkeys).

[4] = IMGN242 preclinical pharmacokinetic studies, mice; type: in vivo
Description: as §1

[5] = IMGN242 pharmacokinetics and toxicity in human clinical trials; type: in vivo
[6] = patients, 160 mg/m^2 and 208 mg/m^2
[7] = patients with low circulating CanAg (<1000 U/mL)

## SAR3419
[1]; [6]
  elimination: eliminated rapidly
  exposure versus dose: increased with dose
[1]; some patients, 160 mg/m^2 or 208 mg/m^2
  ocular toxicity: displayed ocular toxicity

## SMCC-DM1
[2]; dose 8 mg/kg
  corneal ocular toxicity: −
[2]; dose 10 mg/kg
  corneal ocular toxicity: −
[2]; dose 12 mg/kg
  corneal ocular toxicity: −
[2]; dose 16 mg/kg
  corneal ocular toxicity: −

B1: IMGN242 (conjugate, chains of the INN, looked up)
VH: QVQLVQSGAEVKKPGETVKISCKASDYTFTYYGMNWVKQAPGQGLKWMGWIDTTTGEPTYAQKFQGRIAFSLETSASTAYLQIKSLKSEDTATYFCARRGPYNWYFDVWGQGTTVTVSS
VL: DIVMTQSPLSVPVTPGEPVSISCRSSKSLLHSNGNTYLYWFLQRPGQSPQLLIYRMSNLVSGVPDRFSGSGSGTAFTLRISRVEAEDVGVYYCLQHLEYPFTFGPGTKLELK
modifications: maytansinoid DM1 payload (mertansine)
[3]
  t1/2: ~96 h
[4]
  t1/2: about 5 days
[5]; patients
  Cmax versus dose: increased proportionally with increasing dose
  effect of circulating CanAg levels on Cmax: not significantly affected
[5]; patients with high CanAg (>1000 U/mL) compared to low (<1000 U/mL)
  increase in clearance: 3 to 5 fold
[5]; [7]
  duration of initial rapid distribution phase: about 48 hours
  pharmacokinetic profile in plasma: two-phase pharmacokinetic profile
[5]; patients with low circulating CanAg, preliminary analysis
  elimination phase half-life: about 5 days
[5]; patients with low plasma CanAg (<1000 U/ml), dose 168 mg/m2
  incidence of possible study drug-related ocular toxicities: notable incidence
[5]; patients, 18 to 297 mg/m2
  dose limiting toxicities (DLTs): decreased visual acuity, corneal deposits and keratitis
